From article doi:10.1101/303024 (bioRxiv, 2018)

Target: T1, Cdc24-6xHis (full-length, wild type) (S. cerevisiae (budding yeast), UniProt P11433 1-854)
T1 sequence: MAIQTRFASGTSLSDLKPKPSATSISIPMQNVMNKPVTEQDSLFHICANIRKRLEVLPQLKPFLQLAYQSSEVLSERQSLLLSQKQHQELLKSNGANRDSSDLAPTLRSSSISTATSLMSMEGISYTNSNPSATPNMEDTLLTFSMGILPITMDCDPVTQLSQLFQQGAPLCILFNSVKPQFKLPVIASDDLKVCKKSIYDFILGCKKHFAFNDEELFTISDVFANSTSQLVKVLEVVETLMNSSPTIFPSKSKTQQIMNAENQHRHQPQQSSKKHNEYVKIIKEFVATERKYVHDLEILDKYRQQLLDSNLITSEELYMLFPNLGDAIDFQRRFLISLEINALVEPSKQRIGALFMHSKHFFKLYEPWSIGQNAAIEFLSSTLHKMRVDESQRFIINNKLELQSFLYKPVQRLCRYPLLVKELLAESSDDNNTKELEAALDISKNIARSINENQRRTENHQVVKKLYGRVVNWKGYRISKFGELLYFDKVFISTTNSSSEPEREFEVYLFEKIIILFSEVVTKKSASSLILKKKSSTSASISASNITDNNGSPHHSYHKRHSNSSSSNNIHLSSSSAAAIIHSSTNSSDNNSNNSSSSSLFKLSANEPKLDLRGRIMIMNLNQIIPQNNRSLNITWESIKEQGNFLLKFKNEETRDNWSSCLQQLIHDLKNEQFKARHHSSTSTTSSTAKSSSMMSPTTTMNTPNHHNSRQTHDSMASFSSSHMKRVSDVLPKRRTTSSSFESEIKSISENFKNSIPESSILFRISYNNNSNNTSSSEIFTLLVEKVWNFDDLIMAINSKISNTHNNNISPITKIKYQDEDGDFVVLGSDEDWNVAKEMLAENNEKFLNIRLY
Experiment: liposome floatation

binding result: binds
B1: Bem1 (full-length, wild type) (natural protein)
chain: MLKNFKLSKRDSNGSKGRITSADISTPSHDNGSVIKHIKTVPVRYLSSSSTPVKSQRDSSPKNRHNSKDITSPEKVIKAKYSYQAQTSKELSFMEGEFFYVSGDEKDWYKASNPSTGKEGVVPKTYFEVFDRTKPSSVNGSNSSSRKVTNDSLNMGSLYAIVLYDFKAEKADELTTYVGENLFICAHHNCEWFIAKPIGRLGGPGLVPVGFVSIIDIATGYATGNDVIEDIKSVNLPTVQEWKSNIARYKASNISLGSVEQQQQQSITKPQNKSAKLVDGELLVKASVESFGLEDEKYWFLVCCELSNGKTRQLKRYYQDFYDLQVQLLDAFPAEAGKLRDAGGQWSKRIMPYIPGPVPYVTNSITKKRKEDLNIYVADLVNLPDYISRSEMVHSLFVVLNNGFDREFERDENQNNIKTLQENDTATFATASQTSNFASTNQDNTLTGEDLKLNKKLSDLSLSGSKQAPAQSTSGLKTTKIKFYYKDDIFALMLKGDTTYKELRSKIAPRIDTDNFKLQTKLFDGSGEEIKTDSQVSNIIQAKLKISVHDI
